According to US20260166185A1 (Y MABS THERAPEUTICS, published 2026):

Experiments:
CD38 on Daudi cells = target: T1, CD38 on Daudi cells (UniProt P28907 1-300, limits assumed); experiment: titration binding FACS on Daudi cells
T1 construct: whole, on cells
Protocol: Subsequently the EC50 of antibodies samples was determined by titration binding FACS on Daudi cells (for CD38 binding evaluation), on THP-1 cells (for CD33 binding evaluation), on A-431 cells (for EGFR binding evaluation), on MKN-45 cells (for CEACAMS binding evaluation) and on HEK293T (for CD276 binding evaluation). Jurkat E6-1 or HEK293T cell lines were used as negative control, as applicable.

bio-huCD38 [1] = target: T2, bio-huCD38 (human (hu), UniProt P28907 43-300, biotinylated (bio-), site not stated); experiment: SPR (Biacore 8K+), immobilized antigen
Bio-huHER2/Erb2 = Bio-huHER2/Erb2 (human (hu), UniProt P04626 23-652, biotinylated (bio-), site not stated); experiment: SPR (Biacore 8K+), immobilized antigen, 25.0-1.6 nM
bio-huCD38 [2] = target: T2, bio-huCD38; experiment: as above
bio-huCD38 [3] = target: T2, bio-huCD38; experiment: SPR, antigen immobilized, antibody as analyte 25-1.6 nM
Protocol: (§1) SPR analysis was performed on a Biocore 8K+, using a CFJB0944 CM5 sensor chip for immobilization and a SPR running buffer 1×HBS-EP+pH 7.4 (Cytiva, cat no. BR100669) according to the manufacturer's instructions.
(§2) In the second part of this example, antigen was immobilized on the chip and antibody dissolved in the SPR running buffer flowed over the chip.

bio-huCD38 [4] = target: T2, bio-huCD38; experiment: SPR, antibody captured on chip, antigen as analyte 200-6.25 nM
Protocol: as §1
In the first part of this example the antibody was immobilized on the chip and the antigen dissolved in the SPR running buffer flowed over the chip.

bio-huCD38 [5] = target: T2, bio-huCD38; experiment: SPR, antigen immobilized, antibody as analyte 100-6.25 nM
Protocol: as §1, §2

bio-huCD38 [6] = target: T2, bio-huCD38; experiment: SPR, antigen immobilized, antibody as analyte 50-3.1 nM
Protocol: as §1, §2

B1: CD38-DOTA(fab)-dp53 (bispecific antibody)
light: DVQLQESGGGLVQAGGSLRLSCTGSGRTFRNYPMAWFRQAPGKEREFVAGITWVGASTLYADFAKGRFTISRDNAKNTVYLQMNSLKPEDTAVYSCAAGRGIVAGRIPAEYADWGQGTQVTVSSGGGGSGGGGSGGGGSGGGGGSQAVVIQESALTTPPGETVTLTCGSSTGAVTASNYANWVQEKPDHLFTGLIGGHNNRPPGVPARFSGSLIGDKAALTIAGTQTEDEAIYFCALWYSDHWVIGGGTRLTVLGQPKANPTVTLFPPSSEELQANKATLVCLISDFYPGAVTVAWKADGSPVKAGVETTKPSKQSNNKYAASSYLSLTPEQWKSHRSYSCQVTHEGSTVEKTVAPTECS
heavy: HVKLQESGPGLVQPSQSLSLTCTVSGFSLTDYGVHWVRQSPGKGLEWLGVIWSGGGTAYNTALISRLNIYRDNSKNQVFLEMNSLQAEDTAMYYCARRGSYPYNYFDAWGRGTTVTVSSASTKGPSVFPLAPSSKSTSGGTAALGCLVKDYFPEPVTVSWNSGALTSGVHTFPAVLQSSGLYSLSSVVTVPSSSLGTQTYICNVNHKPSNTKVDKKVEPKSCGGHHHHHH
notes: No tetramerization domain; also called YM00017; molecule 15
Work on B1 yielded an EC50 (CD38 on Daudi cells) of 1070 pM, a Kd (bio-huCD38 [1]) of 316 pM and a koff (bio-huCD38 [1]) of 0.000148 s⁻¹. The kon (bio-huCD38 [1]) was 470000 M⁻¹ s⁻¹.

B2: HER2-DOTA(Fab)-p53 (bispecific antibody)
light: QVQLQESGGGSVQAGGSLKLTCAASGYIFNSCGMGWYRQSPGRERELVSRISGDGDTWHKESVKGRFTISQDNVKKTLYLQMNSLKPEDTAVYFCAVCYNLETYWGQGTQVTVSSGGGSGGGSGGGSGGGGSQAVVTQESALTTSPGETVTLTCRSSTGAVTTSNYANWVQEKPDHLFTGLIGGNNNRPPGVPARFSGSLIGDKAALTIAGTQTEDEAIYFCALWYSNHWVFGGGTRLTVLGQPKSSPSVTLFPPSSEELETNKATLVCTITDFYPGVVTVDWKVDGTPVTQGMETTQPSKQSNNKYMASSYLTLTARAWERHSSYSCQVTHEGHTVEKSLSPAECS
heavy: HVKLQESGPGLVQPSQSLSLTCTVSGFSLTDYGVHWVRQSPGKGLEWLGVIWSGGGTAYNTALISRLNIYRDNSKNQVFLEMNSLQAEDTAMYYCARRGSYPYNYFDAWGRGTTVTVSSASTKGPSVFPLAPSSKSTSGGTAALGCLVKDYFPEPVTVSWNSGALTSGVHTFPAVLQSSGLYSLSSVVTVPSSSLGTQTYICNVNHKPSNTKVDKKVEPKSCGGGGSGGGGSKPLDGEYFTLQIRGRERFEMFRELNEALELKDAQAGKEPGGSGGAPHHHHHH
notes: Tetramerizes through p53 depending on concentration; also called YM00018; molecule 2
Binder B2 has a Kd (Bio-huHER2/Erb2) of 58.8 pM, a koff (Bio-huHER2/Erb2) of 2.25e-05 s⁻¹ and a kon (Bio-huHER2/Erb2) of 383000 M⁻¹ s⁻¹.

B3: CD38-DOTA(Fab)-p53 (bispecific antibody)
light: B1 light
heavy: B2 heavy
notes: VHH-Fab fusion of two polypeptide chains; Tetramerizes through p53 depending on concentration; also called YM00016; molecule 1
Binder B3 has an EC50 (CD38 on Daudi cells) of 650 pM, a Kd (bio-huCD38 [2]) of 25.7 pM and a koff (bio-huCD38 [2]) of 1.41e-05 s⁻¹. It also gave a kon (bio-huCD38 [2]) of 550000 M⁻¹ s⁻¹.

B4: CD38-DOTAM(Fab)-p53 (bispecific antibody)
light: DVQLQESGGGLVQAGGSLRLSCTGSGRTFRNYPMAWFRQAPGKEREFVAGITWVGASTLYADFAKGRFTISRDNAKNTVYLQMNSLKPEDTAVYSCAAGRGIVAGRIPAEYADWGQGTQVTVSSGGGGSGGGGSGGGGSGGGGGSDIQMTQSPSSLSASVGDRVTITCQSSHSVYSDNDLAWYQQKPGKAPKLLIYQASKLASGVPSRFSGSGSGTDFTLTISSLQPEDFATYYCLGGYDDESDTYGFGGGTKVEIKRTVAAPSVFIFPPSDEQLKSGTASVVCLLNNFYPREAKVQWKVDNALQSGNSQESVTEQDSKDSTYSLSSTLTLSKADYEKHKVYACEVTHQGLSSPVTKSFNRGEC
heavy: VTLKESGPVLVKPTETLTLTCTVSGFSLSTYSMSWIRQPPGKALEWLGFIGSRGDTYYASWAKGRLTISKDTSKSQVVLTMTNMDPVDTATYYCARERDPYGGGAYPPHLWGRGTLVTVSSASTKGPSVFPLAPSSKSTSGGTAALGCLVKDYFPEPVTVSWNSGALTSGVHTFPAVLQSSGLYSLSSVVTVPSSSLGTQTYICNVNHKPSNTKVDKKVEPKSCGGGGSGGGGSKPLDGEYFTLQIRGRERFEMFRELNEALELKDAQAGKEPGGS
notes: Tetramerizes through p53 depending on concentration; also called YM00006; molecule 5
With B4 the EC50 (CD38 on Daudi cells) was 590 pM, the Kd (bio-huCD38 [3]) was 936 pM and the koff (bio-huCD38 [3]) was 1.63e-05 s⁻¹. The kon (bio-huCD38 [3]) was 17400 M⁻¹ s⁻¹, the Kd (bio-huCD38 [4]) was 2090 pM and the koff (bio-huCD38 [4]) was 7.86e-05 s⁻¹. It also gave a kon (bio-huCD38 [4]) of 37600 M⁻¹ s⁻¹.

B5: CD38-DOTAM(fab)-dp53 (bispecific antibody)
light: B4 light
heavy: VTLKESGPVLVKPTETLTLTCTVSGFSLSTYSMSWIRQPPGKALEWLGFIGSRGDTYYASWAKGRLTISKDTSKSQVVLTMTNMDPVDTATYYCARERDPYGGGAYPPHLWGRGTLVTVSSASTKGPSVFPLAPSSKSTSGGTAALGCLVKDYFPEPVTVSWNSGALTSGVHTFPAVLQSSGLYSLSSVVTVPSSSLGTQTYICNVNHKPSNTKVDKKVEPKSCG
notes: No tetramerization domain; also called YM00007; molecule 6
In the case of B5, the EC50 (CD38 on Daudi cells) is reported as 510 pM, the Kd (bio-huCD38 [3]) is reported as 132 pM and the koff (bio-huCD38 [3]) is reported as 0.000189 s⁻¹. It also gave a kon (bio-huCD38 [3]) of 1.43e+06 M⁻¹ s⁻¹, a Kd (bio-huCD38 [4]) of 12700 pM and a koff (bio-huCD38 [4]) of 0.000214 s⁻¹. The kon (bio-huCD38 [4]) was 16800 M⁻¹ s⁻¹.

B6: CD38-DOTA(fab)-p53_C-Term-LC (bispecific antibody)
light: QAVVIQESALTTPPGETVTLTCGSSTGAVTASNYANWVQEKPDHLFTGLIGGHNNRPPGVPARFSGSLIGDKAALTIAGTQTEDEAIYFCALWYSDHWVIGGGTRLTVLGQPKANPTVTLFPPSSEELQANKATLVCLISDFYPGAVTVAWKADGSPVKAGVETTKPSKQSNNKYAASSYLSLTPEQWKSHRSYSCQVTHEGSTVEKTVAPTECSGGGGSGGGGSGGGGSGGGGGSDVQLQESGGGLVQAGGSLRLSCTGSGRTFRNYPMAWFRQAPGKEREFVAGITWVGASTLYADFAKGRFTISRDNAKNTVYLQMNSLKPEDTAVYSCAAGRGIVAGRIPAEYADWGQGTQVTVSS
heavy: HVKLQESGPGLVQPSQSLSLTCTVSGFSLTDYGVHWVRQSPGKGLEWLGVIWSGGGTAYNTALISRLNIYRDNSKNQVFLEMNSLQAEDTAMYYCARRGSYPYNYFDAWGRGTTVTVSSASTKGPSVFPLAPSSKSTSGGTAALGCLVKDYFPEPVTVSWNSGALTSGVHTFPAVLQSSGLYSLSSVVTVPSSSLGTQTYICNVNHKPSNTKVDKKVEPKSCGGGGSGGGGSKPLDGEYFTLQIRGRERFEMFRELNEALELKDAQAGKEPGGS
notes: VHH at the C-terminus of the light chain; also called YM00013; molecule 12
For B6, the EC50 (CD38 on Daudi cells) was 3750 pM, the Kd (bio-huCD38 [5]) was 313 pM and the koff (bio-huCD38 [5]) was 1.3e-05 s⁻¹. The kon (bio-huCD38 [5]) was 41500 M⁻¹ s⁻¹, the Kd (bio-huCD38 [4]) was 1280 pM and the koff (bio-huCD38 [4]) was 0.000103 s⁻¹. The kon (bio-huCD38 [4]) was 80700 M⁻¹ s⁻¹.

B7: CD38-DOTA(fab)-p53_C-Term-HC (bispecific antibody)
light: QAVVIQESALTTPPGETVTLTCGSSTGAVTASNYANWVQEKPDHLFTGLIGGHNNRPPGVPARFSGSLIGDKAALTIAGTQTEDEAIYFCALWYSDHWVIGGGTRLTVLGQPKANPTVTLFPPSSEELQANKATLVCLISDFYPGAVTVAWKADGSPVKAGVETTKPSKQSNNKYAASSYLSLTPEQWKSHRSYSCQVTHEGSTVEKTVAPTECS
heavy: HVKLQESGPGLVQPSQSLSLTCTVSGFSLTDYGVHWVRQSPGKGLEWLGVIWSGGGTAYNTALISRLNIYRDNSKNQVFLEMNSLQAEDTAMYYCARRGSYPYNYFDAWGRGTTVTVSSASTKGPSVFPLAPSSKSTSGGTAALGCLVKDYFPEPVTVSWNSGALTSGVHTFPAVLQSSGLYSLSSVVTVPSSSLGTQTYICNVNHKPSNTKVDKKVEPKSCGGGGSGGGGSGGGGSGGGGGSDVQLQESGGGLVQAGGSLRLSCTGSGRTFRNYPMAWFRQAPGKEREFVAGITWVGASTLYADFAKGRFTISRDNAKNTVYLQMNSLKPEDTAVYSCAAGRGIVAGRIPAEYADWGQGTQVTVSSGGGGSGGGGSKPLDGEYFTLQIRGRERFEMFRELNEALELKDAQAGKEPGGS
notes: VHH C-terminal of the Fab heavy chain, before p53; also called YM00014; molecule 13
Binder B7 has an EC50 (CD38 on Daudi cells) of 2360 pM, a Kd (bio-huCD38 [6]) of 163 pM and a koff (bio-huCD38 [6]) of 1.52e-05 s⁻¹. The kon (bio-huCD38 [6]) was 93300 M⁻¹ s⁻¹, the Kd (bio-huCD38 [4]) was 1330 pM and the koff (bio-huCD38 [4]) was 7.59e-05 s⁻¹. It also gave a kon (bio-huCD38 [4]) of 57000 M⁻¹ s⁻¹.
